Source: PMC9119628 (PLoS Pathogens, 2022)

Key:
[1] = target: T1, HA-NP (HA-tagged EBOV nucleoprotein) (Zaire ebolavirus (EBOV), UniProt P18272 1-739); assay: co-IP; details: partners not purified
T1 sequence: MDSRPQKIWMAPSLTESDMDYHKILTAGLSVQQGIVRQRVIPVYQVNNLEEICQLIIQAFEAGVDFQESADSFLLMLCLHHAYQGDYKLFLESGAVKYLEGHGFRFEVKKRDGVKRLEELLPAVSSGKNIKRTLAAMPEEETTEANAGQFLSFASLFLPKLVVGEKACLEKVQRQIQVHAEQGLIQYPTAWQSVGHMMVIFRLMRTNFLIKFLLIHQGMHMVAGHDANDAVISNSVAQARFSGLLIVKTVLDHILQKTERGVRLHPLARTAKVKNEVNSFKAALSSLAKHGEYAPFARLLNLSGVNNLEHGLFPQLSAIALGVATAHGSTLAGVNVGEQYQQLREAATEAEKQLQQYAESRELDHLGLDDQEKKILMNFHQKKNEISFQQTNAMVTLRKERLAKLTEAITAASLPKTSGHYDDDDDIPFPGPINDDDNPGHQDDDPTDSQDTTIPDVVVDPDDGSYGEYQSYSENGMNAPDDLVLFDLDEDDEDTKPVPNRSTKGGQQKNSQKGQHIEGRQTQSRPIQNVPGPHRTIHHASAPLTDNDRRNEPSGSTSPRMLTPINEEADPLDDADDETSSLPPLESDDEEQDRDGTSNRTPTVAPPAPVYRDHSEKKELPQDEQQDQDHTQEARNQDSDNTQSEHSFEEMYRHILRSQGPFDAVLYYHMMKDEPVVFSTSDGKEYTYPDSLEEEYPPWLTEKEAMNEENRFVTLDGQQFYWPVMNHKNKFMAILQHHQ

[2] = target: T1, HA-NP (HA-tagged EBOV nucleoprotein); assay: pull-down; details: one partner purified

B1: untagged EBOV VP35 wild type (natural protein)
chain: MTTRTKGRGHTAATTQNDRMPGPELSGWISEQLMTGRIPVSDIFCDIENNPGLCYASQMQQTKPNPKTRNSQTQTDPICNHSFEEVVQTLASLATVVQQQTIASESLEQRITSLENGLKPVYDMAKTISSLNRVCAEMVAKYDLLVMTTGRATATAAATEAYWAEHGQPPPGPSLYEESAIRGKIESRDETVPQSVREAFNNLNSTTSLTEENFGKPDISAKDLRNIMYDHLPGFGTAFHQLVQVICKLGKDSNSLDIIHAEFQASLAEGDSPQCALIQITKRVPIFQDAAPPVIHIRSRGDIPRACQKSLRPVPPSPKIDRGWVCVFQLQDGKTLGLKI
fold change of binding, T6-KO against wt A549 cells [1]: 6 fold | fold change of binding, with OTU-wt co-expression against without OTU [2]: 5 fold
